Experimental data: PMC4479559

Tests used:
[1] = molecular target: Clostridium oremlandii methionine sulfoxide reductase A, Sec-to-Cys form (Clostridium oremlandii (strain OhILAs)); experiment: non-reducing SDS-PAGE; series of MsrA concentrations, 2 h with 0.2 mM free methionine sulfoxide; dimer ratios by ImageJ, fitted with Prism 5
[2] = molecular target: Clostridium oremlandii methionine sulfoxide reductase A, Sec-to-Cys form (Clostridium oremlandii (strain OhILAs)); experiment: non-reducing SDS-PAGE; time course, 84 μM MsrA with 0.2 mM free methionine sulfoxide; dimer ratios by ImageJ, fitted with Prism 5

D1/2 (concentration of MsrA to reach half Dmax) [1]: 7.6 µM | Dmax (maximal percent of dimer) [1]: 98% | D1/2 (reaction time to reach half Dmax) [2]: 5.8 min
Substance: Clostridium oremlandii methionine sulfoxide reductase A, Sec-to-Cys form (enzyme)
